Measurements reported in patent publication US20210101998A1 (Pfizer, published 2021).
Where two headings read alike, the source gives them in different places.

Legend:
[1] = target: T1, rabTFPI K1K2 (rabbit, limits assumed); test: SPR, antibody ligand, TFPI analyte
T1 construct: also called Rabbit TFPI K1K2; rabbit TFPI
T1 chain: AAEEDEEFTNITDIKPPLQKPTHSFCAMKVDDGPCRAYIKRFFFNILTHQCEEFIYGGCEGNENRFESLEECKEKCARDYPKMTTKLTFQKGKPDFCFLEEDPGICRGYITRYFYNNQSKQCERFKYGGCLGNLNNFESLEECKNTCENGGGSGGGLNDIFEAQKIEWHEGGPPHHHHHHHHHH

[2] = target: T2, humTFPI K1K2 (human); test: SPR, antibody ligand, TFPI analyte
T2 construct: Biotinylated on the AviTag for ELISA; also called Human TFPIα K1K2; humTFPI K1K2-aviHis10

[3] = target: T1, rabTFPI K1K2; test: ELISA, biotinylated TFPI on streptavidin plate
Experimental: (§1) Purified anti-TFPI antibodies were diluted to 1 ug/ml in ELISA assay buffer, then serially diluted three-fold to generate an eight-point dilution series. The diluted antibodies were added at a volume of 100 uL per well. The plates were incubated at room temperature for 2 hours. After washing the plates with PBS/0.05% Tween 20, the plates were incubated with a goat anti-mouse IgG-Fc polyclonal antibody conjugated with horseradish peroxidase (Pierce) at 1:10,000 dilution. After 1 hour of incubation, bound antibody was detected with the addition of a TMB substrate solution. Absorbances were read a 450 nm, and the data were analyzed by GraphPad Prism software.

[4] = target: T2, humTFPI K1K2; test: ELISA, biotinylated TFPI on streptavidin plate
Experimental: as §1

[5] = target: T2, humTFPI K1K2; test: cell-based or functional assay
[6] = target: T2, humTFPI K1K2; test: cell-based or functional assay; remark: listed apart in the source
[7] = target: T3, murTFPI K1K2 (mouse); test: SPR, antibody ligand, TFPI analyte
T3 construct: also called Mouse TFPI K1K2; mouse TFPI
T3 chain: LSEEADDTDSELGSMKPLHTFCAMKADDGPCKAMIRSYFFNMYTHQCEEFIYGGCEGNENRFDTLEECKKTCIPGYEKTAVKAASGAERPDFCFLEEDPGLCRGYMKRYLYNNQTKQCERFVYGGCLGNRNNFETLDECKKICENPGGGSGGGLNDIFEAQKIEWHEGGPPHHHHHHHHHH

[8] = target: T2, humTFPI K1K2; test: SPR, antibody ligand, TFPI analyte; remark: listed apart in the source
[9] = target: T1, rabTFPI K1K2; test: ELISA, biotinylated TFPI on streptavidin plate
[10] = target: T2, humTFPI K1K2; test: ELISA, biotinylated TFPI on streptavidin plate; remark: listed apart in the source
[11] = target: T2, humTFPI K1K2; test: SPR, antibody ligand, TFPI analyte; remark: listed apart in the source
Experimental: The flow cells were activated by injecting a 1:1 mixture of 400 mM 1-Ethyl-3-(3-dimethylaminopropyl) carbodiimide hydrochloride (EDC) and N-hydroxysuccinimide (NHS) for 7 minutes at a flow rate of 10 μl/minute. Anti-human IgG antibody was diluted to 25 μg/ml in 10 mM Sodium Acetate pH 5.0 and injected over all flow cells for 7 minutes at 10 ul/minute. All flow cells were blocked with 1 M Ethanolamine-HCL (ETH) for 7 minutes at 10 μl/minute. Final immobilization level of the capture antibody was approximately 10,000 resonance units (RU). The running buffer for immobilization and kinetics was 10 mM HEPES pH 7.4, 150 mM NaCl, 3 mM EDTA, 0.05% (v/v) Tween-20 (HBS-EP+). […] Flow cell 1 was used as a reference surface. […] At the end of each cycle, the entire anti-IgG surface was regenerated by a 60 second pulse of 3 M MgCl2. Kinetic assays were conducted at 25° C. at a collection rate of 10 Hz on a BIAcore T200 instrument (GE Healthcare). Rate constants and affinities were determined by fitting the data to a 1:1 model in BIAcore T200 Evaluation software version 1.0 (GE).

[12] = target: T2, humTFPI K1K2; test: cell-based or functional assay; remark: listed apart in the source

B1: 7A4.D9 (antibody, mouse IgG1, kappa, V domains shown)
VH: EVQLQQSGPELVKPGASVKMSCKASGYTFTSYVMHWVKQKPGQGLEWIGYLNPYNDGTKYNEKFKGKASLISDKSSSTVYMELSSLTSEDSAVYYCATTLLYAMDYWGQGSSVTVSS
VL: DIVLTQSPASLAVSLGQRATISCRASKSVSTSGYTYMHWYQQKPGQPPKLLIYLASNLESGVPARFSGSGSGTDFTLNIHPVEEEDAAAYYCQHIRELPFTFGSGTKLEIKA
notes: Mouse hybridoma antibody; also called mouse 7A4.D9
[1]
  Kd: 3.55 nM
  koff: 0.0188 s⁻¹
  kon: 5.3e+06 M⁻¹ s⁻¹
[2]
  Kd: 6.22 nM
  koff: 0.00921 s⁻¹
  kon: 1.48e+06 M⁻¹ s⁻¹
[3]
  EC50: 0.0887 nM
[4]
  EC50: 0.0887 nM
[5]
  FXa EC50: 22.3 nM
  FXa-FVIIa EC50: 9.35 nM

B2: TFPI-26 (antibody, human IgG1, lambda, V domains shown)
VH: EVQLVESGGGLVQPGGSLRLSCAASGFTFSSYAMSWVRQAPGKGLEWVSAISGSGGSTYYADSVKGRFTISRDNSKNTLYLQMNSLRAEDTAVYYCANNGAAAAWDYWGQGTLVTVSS
VL: QSVLTQPPSLSGAPGQRVTISCTGSSSNLGADYDVQWYQQLPGTAPKLLIFGNNNRPSGVPDRFSGSRSGTSASLAITGLQAEDEANYYCQSYDRSLSGSMVFGGGTKLTVLG
notes: Human IgG1-3M from phage display; also called mAb-TFPI-26
[6]
  FXa EC50: 12.8 nM
  FXa-FVIIa EC50: 9.6 nM
[7]
  Kd: 3.68 nM
  koff: 0.00476 s⁻¹
  kon: 1.29e+06 M⁻¹ s⁻¹
[8]
  Kd: 5.79 nM
  koff: 0.00118 s⁻¹
  kon: 205000 M⁻¹ s⁻¹

B3: 6B7.c5 (antibody, mouse IgG1, kappa, V domains shown)
VH: EVLLQQSGPELVKPGSSVKIPCKASGYTFTDYTMDWVKQSHGKSLEWIGDINPSNGGSIYNRKFKGKATLTVDKSSSTAYMELRSLTSEDTAVYYCARMHYNYDGFPYWGQGTLVTVSA
VL: DIVMTQSHKFMSTSVGDRVSITCKASQDVITAVAWYQQKPGQSPKLLIYWASTRHTGVPVRFTGSGSGTDYTLTIISVQAEDLALYYCQQHYSTPYTFGGGTKLEIKA
notes: Mouse hybridoma antibody; also called mouse 6b7.c5
[1]
  Kd: 4.95 nM
  koff: 0.00564 s⁻¹
  kon: 1.14e+06 M⁻¹ s⁻¹
[2]
  Kd: 6.58 nM
  koff: 0.00363 s⁻¹
  kon: 552000 M⁻¹ s⁻¹
[3]
  EC50: 0.129 nM
[4]
  EC50: 0.121 nM
[5]
  FXa EC50: 13.9 nM
  FXa-FVIIa EC50: 12.1 nM

B4: 4D8-Vk1.0 × VH1.0 (antibody, human IgG1, kappa, V domains shown)
VH: EVQLVESGGGLVQPGGSLRLSCAASGYTFTDYNLDWVRQAPGKGLEWVADINPINGATLYNQKFKGRFTISRDNAKNSLYLQMNSLRAEDTAVYYCARYYGDYDAMDYWGQGTLVTVSS
VL: DIQMTQSPSSLSASVGDRVTITCKASQDVHTAVAWYQQKPGKAPKLLIYWASTRHTGVPSRFSGSGSGTDFTLTISSLQPEDFATYYCQQHYTTPYTFGQGTKLEIKR
notes: Humanized 4D8 variant
[9]
  EC50: 0.0785 nM
[10]
  EC50: 0.0772 nM
[11]
  Kd: 6.94 nM
  koff: 0.00047 s⁻¹
  kon: 67700 M⁻¹ s⁻¹

B5: 4D8-Vk1.1 × VH1.3 (antibody, human IgG1, kappa, V domains shown)
VH: EVQLVESGGGLVQPGGSLRLSCAASGYTFTDYNLDWVRQAPGKGLEWVADINPINGATLYNQKFKGRATISRDNAKNSLYLQMNSLRAEDTAVYYCARYYGDYDAMDYWGQGTLVTVSS
VL: DIQMTQSPSSLSASVGDRVTITCKASQDVHTAVAWYQQKPGKAPKLLIYWASTRHTGVPSRFSGSGSGTDYTLTISSLQPEDFATYYCQQHYTTPYTFGQGTKLEIKR
notes: Humanized 4D8 variant
[9]
  EC50: 0.0511 nM
[10]
  EC50: 0.0651 nM
[11]
  Kd: 0.823 nM
  koff: 0.000131 s⁻¹
  kon: 159000 M⁻¹ s⁻¹

B6: 4D8-Vk1.1 × VH1.0 (antibody, human IgG1, kappa, V domains shown)
VH: EVQLVESGGGLVQPGGSLRLSCAASGYTFTDYNLDWVRQAPGKGLEWVADINPINGATLYNQKFKGRFTISRDNAKNSLYLQMNSLRAEDTAVYYCARYYGDYDAMDYWGQGTLVTVSS
VL: DIQMTQSPSSLSASVGDRVTITCKASQDVHTAVAWYQQKPGKAPKLLIYWASTRHTGVPSRFSGSGSGTDYTLTISSLQPEDFATYYCQQHYTTPYTFGQGTKLEIKR
notes: Humanized 4D8 variant
[9]
  EC50: 0.0451 nM
[10]
  EC50: 0.0429 nM

B7: 4D8-Vk1.1 × VH1.1 (antibody, human IgG1, kappa, V domains shown)
VH: EVQLVESGGGLVQPGGSLRLSCAASGYTFTDYNLDWVRQAPGKGLEWVGDINPINGATLYNQKFKGRATISVDQAKNSAYLQMNSLRAEDTAVYYCARYYGDYDAMDYWGQGTLVTVSS
VL: DIQMTQSPSSLSASVGDRVTITCKASQDVHTAVAWYQQKPGKAPKLLIYWASTRHTGVPSRFSGSGSGTDYTLTISSLQPEDFATYYCQQHYTTPYTFGQGTKLEIKR
notes: Humanized 4D8 variant
[9]
  EC50: 0.0788 nM
[10]
  EC50: 0.0818 nM
[11]
  Kd: 0.832 nM
  koff: 0.000161 s⁻¹
  kon: 193000 M⁻¹ s⁻¹

B8: 4D8-Vk1.1 × VH1.2 (antibody, human IgG1, kappa, V domains shown)
VH: EVQLVESGGGLVQPGGSLRLSCAASGYTFTDYNLDWVRQAPGKGLEWVGDINPINGATLYNQKFKGRFTISRDNAKNSLYLQMNSLRAEDTAVYYCARYYGDYDAMDYWGQGTLVTVSS
VL: DIQMTQSPSSLSASVGDRVTITCKASQDVHTAVAWYQQKPGKAPKLLIYWASTRHTGVPSRFSGSGSGTDYTLTISSLQPEDFATYYCQQHYTTPYTFGQGTKLEIKR
notes: Humanized 4D8 variant
[9]
  EC50: 0.0783 nM
[10]
  EC50: 0.059 nM
[11]
  Kd: 0.627 nM
  koff: 9.49e-05 s⁻¹
  kon: 151000 M⁻¹ s⁻¹

B9: 4D8-Vk1.0 × VH1.3 (antibody, human IgG1, kappa, V domains shown)
VH: EVQLVESGGGLVQPGGSLRLSCAASGYTFTDYNLDWVRQAPGKGLEWVADINPINGATLYNQKFKGRATISRDNAKNSLYLQMNSLRAEDTAVYYCARYYGDYDAMDYWGQGTLVTVSS
VL: DIQMTQSPSSLSASVGDRVTITCKASQDVHTAVAWYQQKPGKAPKLLIYWASTRHTGVPSRFSGSGSGTDFTLTISSLQPEDFATYYCQQHYTTPYTFGQGTKLEIKR
notes: Humanized 4D8 variant
[9]
  EC50: 0.0556 nM
[10]
  EC50: 0.0822 nM
[11]
  Kd: 7.19 nM
  koff: 0.000571 s⁻¹
  kon: 79500 M⁻¹ s⁻¹

B10: 4D8-Vk1.0 × VH1.2 (antibody, human IgG1, kappa, V domains shown)
VH: EVQLVESGGGLVQPGGSLRLSCAASGYTFTDYNLDWVRQAPGKGLEWVGDINPINGATLYNQKFKGRFTISRDNAKNSLYLQMNSLRAEDTAVYYCARYYGDYDAMDYWGQGTLVTVSS
VL: DIQMTQSPSSLSASVGDRVTITCKASQDVHTAVAWYQQKPGKAPKLLIYWASTRHTGVPSRFSGSGSGTDFTLTISSLQPEDFATYYCQQHYTTPYTFGQGTKLEIKR
notes: Humanized 4D8 variant
[9]
  EC50: 0.0422 nM
[10]
  EC50: 0.0758 nM
[11]
  Kd: 0.695 nM
  koff: 0.000165 s⁻¹
  kon: 238000 M⁻¹ s⁻¹

B11: 4D8-Vk1.0 × VH1.4 (antibody, human IgG1, kappa, V domains shown)
VH: EVQLVESGGGLVQPGGSLRLSCAASGYTFTDYNLDWVRQAPGKGLEWVADINPINGATLYNQKFKGRFTISRDQAKNSLYLQMNSLRAEDTAVYYCARYYGDYDAMDYWGQGTLVTVSS
VL: DIQMTQSPSSLSASVGDRVTITCKASQDVHTAVAWYQQKPGKAPKLLIYWASTRHTGVPSRFSGSGSGTDFTLTISSLQPEDFATYYCQQHYTTPYTFGQGTKLEIKR
notes: Humanized 4D8 variant
[9]
  EC50: 0.0426 nM
[10]
  EC50: 0.056 nM
[11]
  Kd: 11.1 nM
  koff: 0.000835 s⁻¹
  kon: 75500 M⁻¹ s⁻¹

B12: 4D8-Vk1.0 × VH1.1 (antibody, human IgG1, kappa, V domains shown)
VH: EVQLVESGGGLVQPGGSLRLSCAASGYTFTDYNLDWVRQAPGKGLEWVGDINPINGATLYNQKFKGRATISVDQAKNSAYLQMNSLRAEDTAVYYCARYYGDYDAMDYWGQGTLVTVSS
VL: DIQMTQSPSSLSASVGDRVTITCKASQDVHTAVAWYQQKPGKAPKLLIYWASTRHTGVPSRFSGSGSGTDFTLTISSLQPEDFATYYCQQHYTTPYTFGQGTKLEIKR
notes: Humanized 4D8 variant
[9]
  EC50: 0.0705 nM
[10]
  EC50: 0.0884 nM
[11]
  Kd: 25.4 nM
  koff: 0.00154 s⁻¹
  kon: 60600 M⁻¹ s⁻¹

B13: 4D8.b1 (antibody, mouse IgG1, kappa)
light: DIVMTQSHKFMSTSVGDRVSITCKASQDVHTAVAWYQQKPGQSPRLLIYWASTRHTGVPDRFTGCGSGTDYTLTISSVQAEDLALYYCQQHYTTPYTFGGGTKLEMKADAAPTVSIFPPSSEQLTSGGASVVCFLNNFYPKDINVKWKIDGSERQNGVLNSWTDQDSKDSTYSMSSTLTLTKDEYERHNSYTCEATHKTSTSPIVKSFNRNEC
heavy: EVLLQQSGPELVKPGASVKIPCKASGYTFTDYNLDWVKQSHGKSLEWIGDINPINGATLYNQKFKGKATLTVDQSSSTAYMELRSLTSEDTAVYYCSIYYGDYDAMDYWGQGASVTVSSAKTTPPSVYPLAPGSAAQTNSMVTLGCLVKGYFPEPVTVTWNSGSLSSGVHTFPAVLQSDLYTLSSSVTVPSSTWPSETVTCNVAHPASSTKVDKKIVPRDCGCKPCICTVPEVSSVFIFPPKPKDVLTITLTPKVTCVVVDISKDDPEVQFSWFVDDVEVHTAQTQPREEQFNSTFRSVSELPIMHQDWLNGKEFKCRVNSAAFPAPIEKTISKTKGRPKAPQVYTIPPPKEQMAKDKVSLTCMITDFFPEDITVEWQWNGQPAENYKNTQPIMDTDGSYFVYSKLNVQKSNWEAGNTFTCSVLHEGLHNHHTEKSLSHSPGK
notes: Mouse monoclonal antibody purified from a hybridoma subclone; also called mouse 4d8.b1; TFPI 4D8
[1]
  Kd: 0.63 nM
  koff: 0.00126 s⁻¹
  kon: 2.01e+06 M⁻¹ s⁻¹
[2]
  Kd: 1.19 nM
  koff: 0.00114 s⁻¹
  kon: 958000 M⁻¹ s⁻¹
[12]
  FXa EC50: 4.15 nM
  FXa-FVIIa EC50: 3.5 nM
[3]
  EC50: 0.0976 nM
[4]
  EC50: 0.0959 nM
[5]
  FXa EC50: 5.9 nM
  FXa-FVIIa EC50: 6.67 nM

B14: TFPI-3 (antibody, human IgG1, kappa, V domains shown)
VH: not shown
VL: AIQLTQSPSSLSASVGDRVTITCRASQGISSSLAWYQQKPGKAPKLLIYAASTLQSGVPSRFSGSGSGTDFTLTISSLQPEDFATYYCQQLDSYPLSFGQGTKLEIKR
notes: Human IgG1-3M from phage display; also called mAb-TFPI-3
[6]
  FXa EC50: 208 nM
  FXa-FVIIa EC50: 37.4 nM
[7]
  Kd: 3.81 nM
  koff: 0.000824 s⁻¹
  kon: 215000 M⁻¹ s⁻¹
[8]
  Kd: 27.1 nM
  koff: 0.0017 s⁻¹
  kon: 62500 M⁻¹ s⁻¹
